Molecular target: ARPC1A-STREP (human) (UniProt Q92747)
Assay: co-purification of a co-expressed recombinant complex; Arp2/3-C1A complexes with ARPC5, ARPC5L or hybrids co-expressed in Sf21 cells and purified as previously described (Abella et al., 2016); Coomassie-stained gel, band quantification with Fiji normalised to ARPC2; immunoblot of the purified complexes

Sequence of UniProt Q92747 (Q92747 whole entry): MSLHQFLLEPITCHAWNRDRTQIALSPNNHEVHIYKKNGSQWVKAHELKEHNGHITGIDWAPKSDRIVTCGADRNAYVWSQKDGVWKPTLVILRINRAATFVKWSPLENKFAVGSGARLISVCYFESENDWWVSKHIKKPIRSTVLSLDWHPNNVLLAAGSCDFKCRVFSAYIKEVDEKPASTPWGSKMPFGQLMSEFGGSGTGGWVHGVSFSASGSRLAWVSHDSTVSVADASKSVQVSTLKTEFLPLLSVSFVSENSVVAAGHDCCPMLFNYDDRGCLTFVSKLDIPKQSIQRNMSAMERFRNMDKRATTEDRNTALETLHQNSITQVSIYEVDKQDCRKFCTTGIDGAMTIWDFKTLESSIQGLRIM
Sequence of ARPC5L (Q9BPX5 whole entry): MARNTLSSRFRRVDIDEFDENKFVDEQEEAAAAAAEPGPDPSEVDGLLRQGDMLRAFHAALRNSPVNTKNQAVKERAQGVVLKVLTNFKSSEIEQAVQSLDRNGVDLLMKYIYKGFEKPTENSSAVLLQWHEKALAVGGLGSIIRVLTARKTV

ARPC5L (from UniProt Q9BPX5 1-153) (natural protein)
gel band ratio to ARPC2 in the purified Arp2/3-C1A complex (subunit occupancy): 0.52
